Biological target: the molecule itself
Experiment: crystal structure

B1: Tyrosine phenol-lyase holoenzyme (Citrobacter freundii), in complex with pyridoxal-5′-phosphate and K+ at pH 8.0 (enzyme, UniProt P31013 1-456, looked up)
chain: MNYPAEPFRIKSVETVSMIPRDERLKKMQEAGYNTFLLNSKDIYIDLLTDSGTNAMSDKQWAGMMMGDEAYAGSENFYHLERTVQELFGFKHIVPTHQGRGAENLLSQLAIKPGQYVAGNMYFTTTRYHQEKNGAVFVDIVRDEAHDAGLNIAFKGDIDLKKLQKLIDEKGAENIAYICLAVTVNLAGGQPVSMANMRAVRELTEAHGIKVFYDATRCVENAYFIKEQEQGFENKSIAEIVHEMFSYADGCTMSGKKDCLVNIGGFLCMNDDEMFSSAKELVVVYEGMPSYGGLAGRDMEAMAIGLREAMQYEYIEHRVKQVRYLGDKLKAAGVPIVEPVGGHAVFLDARRFCEHLTQDEFPAQSLAASIYVETGVRSMERGIISAGRNNVTGEHHRPKLETVRLTIPRRVYTYAHMDVVADGIIKLYQHKEDIRGLKFIYEPKQLRFFTARFDYI
modifications: Lys257 Nζ covalently linked to C4′ of pyridoxal-5′-phosphate (internal aldimine)
stoichiometry N: 4
